Test results published in patent publication US20030148958A1 (PROCTER AND GAMBLE, published 2003).
Residue numbers refer to the chain shown, from its start.

B1: SEQ ID NO 20 (peptide)
peptide: ZGPPISIDLPFQLLRKMIEIEKQEKEKQQATTNARLLDTV
modifications: C-terminal amide
B2: SEQ ID NO 21 (peptide)
peptide: B1 peptide with D38A
modifications: C-terminal amide
B3: SEQ ID NO 22 (peptide)
peptide: B1 peptide with T39R
modifications: C-terminal amide
B4: SEQ ID NO 23 (peptide)
peptide: B1 peptide with D38A, T39R
modifications: C-terminal amide
B5: SEQ ID NO 191 (peptide)
peptide: ZGPPISIDLPFLLLRKMIEIEKQEKEKQQAANNRLLLDTI
modifications: C-terminal amide
B6: SEQ ID NO 203 (peptide)
peptide: B5 peptide with F11Y
modifications: C-terminal amide
B7: SEQ ID NO 210 (peptide)
peptide: B5 peptide with F11W, L12Q
modifications: C-terminal amide
B8: SEQ ID NO 201 (peptide)
peptide: B5 peptide with F11Y, L12V
modifications: C-terminal amide
B9: SEQ ID NO 211 (peptide)
peptide: B5 peptide with F11A, L12Q
modifications: C-terminal amide
B10: SEQ ID NO 200 (peptide)
peptide: B5 peptide with F11Y, L12T
modifications: C-terminal amide
B11: SEQ ID NO 196 (peptide)
peptide: B5 peptide with F11Q
modifications: C-terminal amide
B12: SEQ ID NO 204 (peptide)
peptide: B5 peptide with F11Y, L12I
modifications: C-terminal amide
B13: SEQ ID NO 207 (peptide)
peptide: B5 peptide with F11Q, L12H
modifications: C-terminal amide
B14: SEQ ID NO 24 (peptide)
peptide: B5 peptide with F11I, L12T
modifications: C-terminal amide
B15: SEQ ID NO 206 (peptide)
peptide: B5 peptide with F11A, L12H
modifications: C-terminal amide
B16: SEQ ID NO 199 (peptide)
peptide: B5 peptide with F11Q, L12I
modifications: C-terminal amide
B17: SEQ ID NO 202 (peptide)
peptide: B5 peptide with F11Y, L12Q
modifications: C-terminal amide
B18: SEQ ID NO 193 (peptide)
peptide: B5 peptide with F11L, L12V
modifications: C-terminal amide
B19: SEQ ID NO 194 (peptide)
peptide: B5 peptide with F11L, L12I
modifications: C-terminal amide
B20: SEQ ID NO 192 (peptide)
peptide: B5 peptide with F11I, L12W
modifications: C-terminal amide
B21: SEQ ID NO 208 (peptide)
peptide: B5 peptide with F11Y, L12H
modifications: C-terminal amide
B22: SEQ ID NO 205 (peptide)
peptide: B5 peptide with F11H, L12H
modifications: C-terminal amide
B23: SEQ ID NO 209 (peptide)
peptide: B5 peptide with F11W, L12H
modifications: C-terminal amide
B24: SEQ ID NO 195 (peptide)
peptide: B5 peptide with F11L, L12F
modifications: C-terminal amide

Key:
[1] = biological target: T1, corticotropin releasing factor 2 receptor; experiment: cell-based or functional assay
T1 sequence (Q13324 whole entry, species assumed, looked up): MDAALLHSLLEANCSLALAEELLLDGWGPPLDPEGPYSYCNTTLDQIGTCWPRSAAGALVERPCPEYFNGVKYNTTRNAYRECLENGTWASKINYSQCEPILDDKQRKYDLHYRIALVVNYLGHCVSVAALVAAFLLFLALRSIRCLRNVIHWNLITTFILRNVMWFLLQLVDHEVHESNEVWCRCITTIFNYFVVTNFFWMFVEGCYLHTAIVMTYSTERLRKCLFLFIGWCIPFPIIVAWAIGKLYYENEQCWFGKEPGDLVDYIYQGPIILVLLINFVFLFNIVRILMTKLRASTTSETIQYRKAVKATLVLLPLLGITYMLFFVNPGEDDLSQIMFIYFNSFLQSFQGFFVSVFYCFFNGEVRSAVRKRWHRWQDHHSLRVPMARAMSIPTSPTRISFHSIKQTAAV

[2] = biological target: corticotropin releasing factor 1 receptor; experiment: cell-based or functional assay
Wherever CRF1R Emax is given: reference of the scale not given here.
Wherever CRF2R Emax is given: reference of the scale not given here.

Row | Binder | CRF2R EC50 [1] | CRF2R Emax [1] | CRF1R EC50 [2] | CRF1R Emax [2]
1 | B1 | 7.81 nM | 99% | 906 nM | 60%
2 | B2 | 8.46 nM | 96% | 908 nM | 88%
3 | B3 | 8.33 nM | 100% | 1000 nM | 64%
4 | B4 | 10.2 nM | 100% | 1000 nM | 82%
5 | B5 | 8.3 nM | 100% | 63.7 nM | 65%
6 | B6 | 5.2 nM | 94% | 76.2 nM | 86%
7 | B7 | 10.2 nM | 97% | 43.5 nM | 90%
8 | B8 | 5 nM | 100% | 99.6 nM | 80%
9 | B9 | 59.5 nM | 100% | 826 nM | 37%
10 | B10 | 8.8 nM | 100% | 188 nM | 99%
11 | B11 | 27.7 nM | 97% | 447 nM | 96%
12 | B12 | 3.6 nM | 93% | 32.1 nM | 74%
13 | B13 | 61.4 nM | 96% | 466 nM | 88%
14 | B14 | 43.1 nM | 100% | > 1000 nM | 18%
15 | B15 | 30.5 nM | 97% | 696 nM | 97%
16 | B16 | 8.5 nM | 92% | 706 nM | 93%
17 | B17 | 8.7 nM | 99% | 404 nM | 100%
18 | B18 | 10.1 nM | 97% | 266 nM | 95%
19 | B19 | 5 nM | 96% | 106 nM | 94%
20 | B20 | 66.8 nM | 97% | 562 nM | 99%
21 | B21 | 5.6 nM | 88% | 64.9 nM | 81%
22 | B22 | 25 nM | 93% | 126 nM | 88%
23 | B23 | 7.4 nM | 93% | 26.4 nM | 80%
24 | B24 | 18.8 nM | – | 103 nM | 93%
